One may read the stoichiometry N as the number of molecules, sites or subunits per partner or assembly.

For 1 substance, stoichiometry N, percent of protein as dimer, with Zn2+ or Fe3+ and percent of total protein as dimer, with Cu2+ results are on record in publication PMC9331050.

Assay [1] addresses CreFH1, frataxin homolog from Chlamydomonas reinhardtii, mature form without the mitochondrial transit peptide (Chlamydomonas reinhardtii). As to the kind of experiment: native MS; ESI-TOF MS of recombinant CreFH1 after 3 h with Cu2+, Fe3+, Zn2+ or water; carrier 5:95 acetonitrile:ammonium acetate/ammonia 15 mM, pH 7.0; monomer to dimer.
Assay [2] shares this target. As to the kind of experiment: native gel or EMSA; 8% native PAGE of purified CreFH1 incubated 1 or 3 h with water (control) or 33 uM Fe3+, Cu2+ or Zn2+; 3 ug protein a lane; Coomassie stain, densitometry; monomer to dimer. For orientation: Mobility shift assays separate free from complexed probe on a gel.

On to “CreFH1, frataxin homolog from Chlamydomonas reinhardtii, mature form without the mitochondrial transit peptide (natural protein)”, for which the stoichiometry N in assay [1] stood at 2. In assay [2], this substance displayed a percent of protein as dimer, with Zn2+ or Fe3+ of 22%; a percent of total protein as dimer, with Cu2+ of 40%; a stoichiometry N of 2.
